Here are results for eight molecules from patent US20240067748A1 (NONA BIOSCIENCES SUZHOU, published 2024).

Positions count from the first letter of the chain named.

A word on the EC50: it is the concentration that produces a half-maximal response. What is called Kd is the concentration at which binding is half-saturated. Usually koff stands for the first-order rate constant of dissociation. One may read the kon as the second-order rate constant of association.

First the molecules themselves.
T1: human Trop2 on cells (human, UniProt P09758 27-323)
T1 construct: whole, on cells; also called hTrop2; 293T-human Trop2 cells
T1 sequence (looked up): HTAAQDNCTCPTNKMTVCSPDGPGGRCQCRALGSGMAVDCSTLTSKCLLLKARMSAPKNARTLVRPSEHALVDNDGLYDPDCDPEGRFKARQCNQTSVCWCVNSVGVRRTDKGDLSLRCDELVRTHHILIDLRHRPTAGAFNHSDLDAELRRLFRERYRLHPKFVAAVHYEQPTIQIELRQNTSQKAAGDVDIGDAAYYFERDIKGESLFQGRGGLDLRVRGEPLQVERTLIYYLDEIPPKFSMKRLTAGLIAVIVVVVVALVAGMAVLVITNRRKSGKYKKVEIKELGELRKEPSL

T2: mouse Trop2-his protein (Sino Biological, #50922-M08H) (mouse, UniProt Q8BGV3 25-270)
T2 construct: bought protein; also called mouse Trop2 protein; not shown: his tag
T2 sequence (looked up): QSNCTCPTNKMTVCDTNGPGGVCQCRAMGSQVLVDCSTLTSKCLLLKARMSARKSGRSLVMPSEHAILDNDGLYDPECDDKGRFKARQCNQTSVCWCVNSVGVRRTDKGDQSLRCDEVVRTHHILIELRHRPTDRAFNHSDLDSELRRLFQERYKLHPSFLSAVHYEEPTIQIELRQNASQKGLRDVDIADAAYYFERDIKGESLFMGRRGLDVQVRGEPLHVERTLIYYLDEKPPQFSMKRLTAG

T3: monkey Trop2 protein (Sino Biological, #90893-C08H) (monkey, UniProt A0A2K5UE71 27-274)
T3 construct: bought protein; also called monkey Trop2 protein antigen (His tag)
T3 sequence: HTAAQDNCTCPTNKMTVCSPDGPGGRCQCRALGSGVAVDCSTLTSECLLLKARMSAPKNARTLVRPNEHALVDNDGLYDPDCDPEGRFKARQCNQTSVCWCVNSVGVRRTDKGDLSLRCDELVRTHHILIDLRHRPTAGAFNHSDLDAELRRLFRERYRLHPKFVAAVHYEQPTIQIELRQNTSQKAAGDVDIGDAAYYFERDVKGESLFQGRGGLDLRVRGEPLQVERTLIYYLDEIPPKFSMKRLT

B1: comparative example 2 antibody Tab (hRS7) (antibody, human IgG1, kappa, V domains shown)
VH: QVQLQQSGSELKKPGASVKVSCKASGYTFTNYGMNWVKQAPGQGLKWMGWINTYTGEPTYTDDFKGRFAFSLDTSVSTAYLQISSLKADDTAVYFCARGGFGSSYWYFDVWGQGSLVTVSS
VL: DIQLTQSPSSLSASVGDRVSITCKASQDVSIAVAWYQQKPGKAPKLLIYSASYRYTGVPDRFSGSGSGTDFTLTISSLQPEDFAVYYCQQHYITPLTFGAGTKVEIKR
notes: prepared on the basis of sacituzumab govitecan (ChemPartner, #T07-001); naked antibody
B2: PR001139 (antibody, human IgG1, kappa, V domains shown)
VH: QVQLVESGGGVVQPGRSLRLSCAASGFTFSSFGMQWVRQGPGKGLEWVAVMWFDGSNKYYVDSVKGRFTISRDNSKNTLYLQMNSLRAEDTAVYYCARLDFSGWPLIDYWGQGTLVTVSS
VL: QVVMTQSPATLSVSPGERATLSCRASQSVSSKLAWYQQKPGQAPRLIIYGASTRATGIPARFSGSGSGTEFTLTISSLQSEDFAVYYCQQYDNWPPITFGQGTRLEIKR
notes: fully human IgG1/kappa; also called antibody No. (8)
B3: PR001130 (antibody, human IgG1, kappa, V domains shown)
VH: QVQLQESGPGLVKPSGTLSLTCAVSGDSISSHNWWSWVRQPPGKGLEWIGEIYHSGITSYNPSLKSRVTISVDKSKNQFSLKLNSVTAADTAMYYCARGSGVISYFDYWGQGTLVTVSS
VL: DIQMTQSPSTLSASVGDRVTITCRASQSIGNWLAWYQQKPGKAPKLLIYKASSLESGVPSRFSGSGSGTEFTLTISSLQPDDFATYYCQQYDSYSPITFGQGTRLEIKR
notes: fully human IgG1/kappa; also called antibody No. (2)
B4: PR001142 (antibody, human IgG1, kappa, V domains shown)
VH: B3 VH with H32N, H54P, S55G, I57N, T58P, S59N, M93V
VL: B3 VL with N31H, S63R, D92S, T103S
notes: fully human IgG1/kappa; also called antibody No. (9)
B5: PR001166 (antibody, human IgG1, kappa, V domains shown)
VH: QVQLQESGPGLVKPSETLSLTCAVSGYSISSGYFWAWIRQPPGKGLEWIGSIYHSGRTHYNPSLKSRVIISLDTSKNQFSLKLRSVTAADSAVYYCAREGYASGSYYWGQGTLVTVSS
VL: EIVMTQSPATLSVSPGERATLSCRSSQSVNNYLAWFQQKPGQAPRLLIYDSSTRATGIPARFSGSGSGTEFTLTISSLQSEDFAFYFCQQYENWPLTFGGGTKVEIKR
notes: fully human IgG1/kappa; also called antibody No. (27)
B6: PR001128 (antibody, human IgG1, kappa, V domains shown)
VH: QVQLQESGPGLVKPSGTLSLTCAVSGGSISSSNWWSWVRQPPGKGLEWIGEIFHSGTTYYNPSLKSRVTILVDKSKNQFSLKLSSVTAADTAVYYCARDNTKSWDHFDHWGQGTLVTVSS
VL: EIVLTQSPATLSLSPGERATLSCRASQSVGSYLAWYQQKPGQAPSLLIYDASNRATGIPARFSGSGSGTDFTLTISSLEPEDFAVYYCQQRTNWYTFGQGTKLEIKR
notes: fully human IgG1/kappa; also called antibody No. (1)
B7: PR001165 (antibody, human IgG1, kappa, V domains shown)
VH: QVQLVESGGGVVQPGRSLRLSCEASGFTFSHYGMHWVRQAPGKGLEWVAVIWYDGIKTYYVESVKGRFTISRDNSKNTLNLQMNRLRAEDTAVYYCARDGGFGESNYYGLDVWGQGTTVTVSS
VL: DIQLTQSPSFLSASVGDRVTITCRASQGISSYLGWYQQKPGKAPKLLIYIASTLQSGVPSRFSGSGSGTEFTLTISSLQPEDFATYYCQQLNSYPYTFGQGTKLEIKR
notes: fully human IgG1/kappa; also called antibody No. (26)
B8: PR001133 (antibody, human IgG1, kappa, V domains shown)
VH: QVNLVESGGGVVQPGRSLKLSCAASGFTFSSYGMHWVRQAPGKGLEWVALIWSDGTNRYYTESVKGRFTISRDNSKNTLSLQMKSLRAEDTAVYYCAKDGWGTYGEYFQHWGQGTLVTVSS
VL: DIQMTQSPSSLSASVGDRVTITCRASQNINSYLHWYQQKPGKAPKLLIYAASSLQSGVPSRFSGSGSGTDFTLTISSLQPEDFAIYYCQQSYSIPPITFGQGTRLEIKR
notes: fully human IgG1/kappa; also called antibody No. (5)

The first test deals with T1, human Trop2 on cells. Kind of test: flow cytometry on 293T-human Trop2 cells. In outline:
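Cells at 1×10⁶/mL in PBS were incubated for 1 h, washed in PBS+0.5% BSA, then stained with Alexa Fluor 488 anti-human IgG for 1 h at 4 °C. Cell-bound fluorescence was measured by flow cytometry, with all steps on ice.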
With B1, a half-maximal effect (EC50) was put at 0.753 nM and the “Maximum (MFI)” value was 6480 MFI.

For B2, the EC50 was determined as 0.325 nM, the “Maximum (MFI)” value worked out at 6850 MFI and the Top % was determined as 106%.

Take B3: the EC50 was 2.06 nM, the “Maximum (MFI)” value turned out to be 6820 MFI and the Top % turned out to be 105%.

With B4, the midpoint of the response, the EC50, lay at 0.23 nM; the “Maximum (MFI)” value is 6510 MFI; the Top % came to 101%; the “fold lower EC50 than the reference antibody hRS7” value is roughly 3 fold.

For the molecule B5, it took 0.204 nM to reach a half-maximal effect (EC50), the “Maximum (MFI)” value came to 7050 MFI, the Top % is 109% and the “fold lower EC50 than the reference antibody hRS7” value is roughly 3 fold.

For B6, the EC50 worked out at 0.466 nM, the “Maximum (MFI)” value is 6850 MFI and the Top % amounted to 106%.

Turning to B7, the EC50 turned out to be 0.414 nM, the “Maximum (MFI)” value turned out to be 6460 MFI and the Top % was 99.7%.

With B8, the EC50 came to 0.995 nM, the “Maximum (MFI)” value was found to be 7200 MFI and the Top % turned out to be 111%.

The target in a further test is T2, mouse Trop2-his protein (Sino …). Kind of test: ELISA, plate coated with mouse Trop2-his protein, anti-human IgG (H+L)-HRP, OD450 nm. On the procedure: An ELISA plate was coated with 100 μL of 1 μg/mL mouse Trop2-his protein (Sino Biological, #50922-M08H) in PBS at 4° C. overnight. The plate was blocked with 200 μL of PBST (PBS+0.05% tween 20)+2% BSA at 37° C. for 1 h. The plate was washed 4 times with PBST. 100 μL of Trop2 antibody diluted in a gradient (5-fold dilution, starting concentration: 33.33 nM) was added to the ELISA plate and the plate was incubated at 37° C. for 1 h. The plate was washed 4 times with PBST. 100 μL of anti-human IgG (H+L)-HRP (Sigma, #A8667) diluted in 1:4000 was added and the plate was incubated at 37° C. for 1 h. The plate was washed 4 times with PBST. 100 μL of TMB substrate (Invitrogen, #88-7025-88) was added and the plate was incubated at room temperature for 5 min, and then 50 μL of stop buffer (BBI life sciences, #E661006-0200) was added to stop the reaction. The OD450 nm reading was recorded using a microplate reader (Perkin Elmer, EnSpire).
For B2, the binding result is “binds”.

For the molecule B3, the binding result is reported as “no binding”.

Turning to B4, the binding result was “no binding”.

In the case of B5, the binding result is “binds”.

B6: the binding result was “no binding”.

With B7, the binding result is listed as “no binding”.

In the case of B8, the binding result is “no binding”.

For another test, the target named is T3, monkey Trop2 protein (Sino Biological, …). Put plainly: BLI, Octet RED96, AHC sensor. In outline:
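Antibody at 40 nM is tested against captured human or monkey Trop2, which is loaded at 200 nM. Binding lasts 3 min and washout 5 min, both at 30° C in PBS pH 7.4 containing BSA and Tween 20.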
The molecule B1 displayed a Kd of 0.137 nM and a Response of 0.322.

As to B2, the Kd amounted to 7.75 nM, the Response was determined as 0.328, the koff was 0.000528 s⁻¹ and the kon was found to be 68100 M⁻¹ s⁻¹.

Molecule B3 yielded a Kd of less than 0.001 nM, a Response of 0.315, a koff of less than 1e-07 s⁻¹ and a kon of 37700 M⁻¹ s⁻¹.

B4 registered a Kd of 0.26 nM, a Response of 0.382, a koff of 4.29e-05 s⁻¹ and a kon of 165000 M⁻¹ s⁻¹.

B5 registered a Kd of less than 0.001 nM, a Response of 0.322, a koff of less than 1e-07 s⁻¹ and a kon of 316000 M⁻¹ s⁻¹.

Molecule B6 had a Kd of less than 0.001 nM, a Response of 0.384, a koff of less than 1e-07 s⁻¹ and a kon of 83500 M⁻¹ s⁻¹.

B7: the Kd is 0.26 nM, the Response is 0.393, the koff was 2.62e-05 s⁻¹ and the kon worked out at 101000 M⁻¹ s⁻¹.

Consider B8, for which the Kd is 2.49 nM, the Response amounted to 0.369, the koff came to 0.000149 s⁻¹ and the kon was found to be 59800 M⁻¹ s⁻¹.

The next test has as its target T1, human Trop2 on cells. Kind of test: flow cytometry on BxPC-3 tumor cells. On the procedure:
BxPC-3 tumor cells (the Cell Bank of the Chinese Academy of Sciences, #TCHu 12) were digested with 3 mL of TrypLE, and the digestion was stopped with 7 mL of the corresponding medium. […] The cell solution was centrifuged, and the cells were washed once with PBS+[…] buffer. […] The cells were washed once with PBS+0.50% BSA. The cells were incubated at 4° C. for 1 h in the dark with 100 μL of Alexa Fluor 488 goat anti-human IgG (Life technologies, #A-11013) diluted at 1:1000, and washed twice with PBS+0.50% BSA. The cells were resuspended in 200 μL of PBS+0.50% BSA. The suspension was centrifuged at 4° C. for 5 min at 2000 rpm and tested using a FACS verse flow cytometer or NovoCyte flow cytometer (ACEA Biosciences). All procedures were performed on ice.
With B1, the EC50 came to 2.08 nM and the “Maximum MFI value” was found to be 8730 MFI.

With B2, the response was half-maximal at 3.15 nM (EC50) and the “Maximum MFI value” amounted to 9360 MFI.

On to B3, for which the EC50 came out at 3.85 nM and the “Maximum MFI value” turned out to be 9960 MFI.

B4: the EC50 stood at 1.15 nM, the “Maximum MFI value” is 10800 MFI and the “fold lower EC50 than the reference antibody hRS7” value is roughly 2 fold.

Turning to B5, it took 0.716 nM to reach a half-maximal effect (EC50), the “Maximum MFI value” was 8390 MFI and the “fold lower EC50 than the reference antibody hRS7” value was roughly 2 fold.

For the molecule B6, the response was half-maximal at 1.7 nM (EC50) and the “Maximum MFI value” stood at 8410 MFI.

With B8, the midpoint of the response, the EC50, lay at 2.07 nM and the “Maximum MFI value” was 8950 MFI.
